Experimental data reported in doi:10.1101/322404, “Discovery of a novel stereospecific β-hydroxyacyl-CoA lyase/thioesterase shared by three metabolic pathways in Mycobacterium tuberculosis” (bioRxiv, 2018).

Biological target: the molecule itself
Experiment: crystal structure

B1: Mycobacterium tuberculosis Rv2498c, β-hydroxyacyl-CoA lyase/thioesterase (enzyme)
chain: MNLRAAGPGWLFCPADRPERFAKAAAAADVVILDLEDGVAEAQKPAARNALRDTPLDPERTVVRINAGGTADQARDLEALAGTAYTTVMLPKAESAAQVIELAPRDVIALVETARGAVCAAEIAAADPTVGMMWGAEDLIATLGGSSSRRADGAYRDVARHVRSTILLAASAFGRLALDAVHLDILDVEGLQEEARDAAAVGFDVTVCIHPSQIPVVRKAYRPSHEKLAWARRVLAASRSERGAFAFEGQMVDSPVLTHAETMLRRAGEATSE
notes: also called β-HAClyase/thioesterase; CitE-like
B1 was tested, and the “stoichiometry N” value was 3.
